Measurements published in the supplement of paper PMC7125110.
± gives the standard error. Variants at the floor of the assay were thinned out.

B1: glmS ribozyme (parent)
chain: AUAAAAGCGCCAGAACUACAGAAAUGUAGUUGACGAGGAGGAGGUUUAUCGAAUUUUCGGCGGAUGCCUCCAAA

Variants of: B1
Assay: self-cleavage kobs at 2500 uM GlcN6P; higher = faster cleavage; RNA array
Details: with glucosamine-6-phosphate
Procedure, shortened: (§1)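 A hybridised Cy3 probe tracked barcoded ribozyme variants, transcribed in situ by E. coli RNA polymerase on sequenced MiSeq chips, at 37 °C. The variants received 40 μM to 10 mM glucosamine-6-phosphate in HEPES/KCl/Mg(OAc)2 buffer. kobs came from decay fits and kcat and KM from weighted Michaelis–Menten fits.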

Row | Variant | self-cleavage kobs at 2500 uM GlcN6P
1 | G37A C68A C70U | < 1e-05 s⁻¹
2 | G37A C68A C70G | < 1e-05 s⁻¹
3 | G40U U57A C61G | < 1e-05 s⁻¹
4 | G38A U54C G63U | < 1e-05 s⁻¹
5 | G35C G38U G43U | < 1e-05 s⁻¹
6 | G35U U47A U55C | < 1e-05 s⁻¹
7 | G32C A33C G63U G66A | < 1e-05 s⁻¹
8 | G41U U54A U55A U56A C67U | < 1e-05 s⁻¹
9 | C34A A39U C50G C67G | 0.000353 ± 6.7e-05 s⁻¹
10 | A36U U46A U56G | < 1e-05 s⁻¹
11 | G37A U45A A52U G60A | < 1e-05 s⁻¹
12 | G37U G41U U47G G63U | < 1e-05 s⁻¹
13 | C34U G37C A42U | < 1e-05 s⁻¹
14 | G32U A39C | 4.98e-05 ± 1.5e-05 s⁻¹
15 | A39U A53U C70G | 0.0003 ± 7.6e-05 s⁻¹
16 | A39C U46A U47G A48C G63A | < 1e-05 s⁻¹
17 | C34U G44U U49C G59A C61A | < 1e-05 s⁻¹
18 | G35C A36U G41C G51U U65G | < 1e-05 s⁻¹
19 | G32A U45C | 0.000112 ± 3.8e-05 s⁻¹
20 | G32C U55A | 4.27e-05 ± 1.5e-05 s⁻¹
21 | G35U U47A C61A | < 1e-05 s⁻¹

Row | Variant | self-cleavage kobs at 2500 uM GlcN6P
22 | G35A U46A A64G | < 1e-05 s⁻¹
23 | G35C G38U G59C U69G | < 1e-05 s⁻¹
24 | A42U G59U C61G A64U C68A C70G | < 1e-05 s⁻¹
25 | G35U C61U C70U | < 1e-05 s⁻¹
26 | C34G G43C U46G U69G | < 1e-05 s⁻¹
27 | A36C U49A U56A | < 1e-05 s⁻¹
28 | A42U A48G A52G C58G | < 1e-05 s⁻¹
29 | U31G G41U G62U G66U | < 1e-05 s⁻¹
30 | U31G A36C G38A G40A | < 1e-05 s⁻¹
31 | G35U C50G G66A | 7.38e-05 ± 3.6e-05 s⁻¹
32 | G40U A42U G43A C71A | < 1e-05 s⁻¹
33 | A36G U55A U65G | < 1e-05 s⁻¹
34 | G41U U45G U49A | < 1e-05 s⁻¹
35 | G40C G43U U56A | < 1e-05 s⁻¹
36 | G35A G37U G51C | < 1e-05 s⁻¹
37 | U45C C61U C70G | < 1e-05 s⁻¹
38 | G35C A42G U49C | < 1e-05 s⁻¹
39 | A42U G59U C70G | < 1e-05 s⁻¹
40 | G43U G44U G60A A64G C67A C71G | < 1e-05 s⁻¹
41 | G37U A48C A53G | < 1e-05 s⁻¹
42 | C34A G44C G59U G63A | < 1e-05 s⁻¹

Row | Variant | self-cleavage kobs at 2500 uM GlcN6P
43 | G35C A53U G60U C61U | < 1e-05 s⁻¹
44 | G43C C67A U69G | 0.000151 ± 6e-05 s⁻¹
45 | A36G A48G U69C | < 1e-05 s⁻¹
46 | A33U G35C G62A | < 1e-05 s⁻¹
47 | A33G A36C G44C U45A C50U C71A | < 1e-05 s⁻¹
48 | G32C G35A A42U | < 1e-05 s⁻¹
49 | A39U G44U A53U | 0.000583 ± 0.00016 s⁻¹
50 | C34G G41U A42U | < 1e-05 s⁻¹
51 | A36U G43C A53C C71G | < 1e-05 s⁻¹
52 | U45A A48G C67G | 8.99e-05 ± 3.1e-05 s⁻¹
53 | A39G G40U A52G | 6.69e-05 ± 2.4e-05 s⁻¹
54 | G35U G37U G43U G44A | < 1e-05 s⁻¹
55 | A39G G51A C68U | < 1e-05 s⁻¹
56 | G37U A39U G43U C67G | < 1e-05 s⁻¹
57 | G43A G66C C71A | < 1e-05 s⁻¹
58 | A33G G37A G62C | < 1e-05 s⁻¹
59 | G40U A48G C68U | < 1e-05 s⁻¹
60 | G41U U45C U56G | 7.1e-05 ± 3.2e-05 s⁻¹
61 | C34G G37C G60U G63C | < 1e-05 s⁻¹
62 | C34U A36C A39U | < 1e-05 s⁻¹
63 | G37C C50G U54G G63U A64U | 6.2e-05 ± 3e-05 s⁻¹

Row | Variant | self-cleavage kobs at 2500 uM GlcN6P
64 | G32A U49A U65G | < 1e-05 s⁻¹
65 | A33U A48G U55G | < 1e-05 s⁻¹
66 | A33G A53C U65A C67U | < 1e-05 s⁻¹
67 | U45A G51U U54G G63C | < 1e-05 s⁻¹
68 | G32C G37U G40U U55G | < 1e-05 s⁻¹
69 | C34A A48G U57C | < 1e-05 s⁻¹
70 | G38C A39G G59A | < 1e-05 s⁻¹
71 | A39G A52U C58A | < 1e-05 s⁻¹
72 | G38C U49G U55A U65G | < 1e-05 s⁻¹
73 | G35C A52C C58U | < 1e-05 s⁻¹
74 | G38A C50G U57C | 0.000163 ± 6.6e-05 s⁻¹
75 | G40C U54G G66A | 0.00142 ± 0.00027 s⁻¹
76 | G37A A39C G59C | < 1e-05 s⁻¹
77 | G41U A42C C70U | 0.000121 ± 2.6e-05 s⁻¹
78 | A33C U54C C67G C68G C70U | < 1e-05 s⁻¹
79 | G35C A36G G40U C70U | < 1e-05 s⁻¹
80 | C34G U46C | < 1e-05 s⁻¹
81 | A36U G38C U47G | < 1e-05 s⁻¹

Variants of: B1
Assay: self-cleavage kobs at 10000 uM GlcN6P; higher = faster cleavage; RNA array
Details: with glucosamine-6-phosphate
Procedure, shortened: as §1

Row | Variant | self-cleavage kobs at 10000 uM GlcN6P
82 | G32U A39C | 7.09e-05 ± 1.1e-05 s⁻¹
83 | A39U A53U C70G | 0.000276 ± 5e-05 s⁻¹
84 | G35C A36U G41C G51U U65G | < 1e-05 s⁻¹
85 | G32A U45C | 9.73e-05 ± 2.3e-05 s⁻¹
86 | G32C U55A | 9.57e-05 ± 1.5e-05 s⁻¹
87 | G35C A52C C58U | < 1e-05 s⁻¹
